Reference: the nanobody polyreactivity screen of Harvey et al. (2022)

test: yeast display, Sf9 membrane polyspecificity reagent, FACS + sequencing; frameworks hold sequencing errors
Outline: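 Using colony PCR, genes from sorted yeast display clones were amplified, then sequenced on MiSeq at 2 × 250 and filtered by CDR length. The clones had been stained with 10% biotinylated, detergent-solubilized Sf9 membrane reagent for 1 hour at 4 °C and sorted by FACS into low and high (top ~1%) gates on anti-HA and streptavidin fluorescence. Polyreactivity labels come from the gate of origin.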

Sequence | polyreactivity (PSR sort gate)
QVQLVESGGGLVQAGGSLRLSCAASGRIFLINAMGWYRQAPGKERELVAAITVSGTRTYYADSVKGRFTISRDNAKNNVYLQMNSLKPEDTAVYYCAAKLQYRWTCGYYYWGQGTQVTVSS | high polyreactivity
QVQLVESGGGLVQAGGSLRLSCAASGRIFLINAMGWYRQAPGKESEFVAAIRTGGNTYYADSVKGRFTLSRDNAKNTVYLQMNSLKPEDTAVYYCAADRIYPYYRWSGAHRSDVDYWGQGTQVTVSS | low polyreactivity
QVQLVESGGGLVQAGGSLRLSCAASGRIFLKYTLGWYRQAPGKERELVAAISRGGSTYYADSVKGRFTISRDNAKNTVYLQMNSLKPEDSAVYYCAATSYRRTGYNYWGQGTQVTVSS | high polyreactivity
QVQLVESGGGLVQAGGSLRLSCAASGRIFLKYTMGLYRQAPGKERELVAAISRGGSTYYADSVKGRFTISRDNAKNTVYLQMNRLKPEDTAVYYCAATSYRRTGYNYWGQGTQVTVSS | high polyreactivity
QVQLVESGGGLVQAGGSLRLSCAASGRIFLQYAMGWYRPAPGKERELVAAISRSGGSTYYADSVKGRFTISRDTAKNSVYLQMNSQKPEDTAVYYCAAALFGNRYYYWGQGTQVTVSS | low polyreactivity
QVQLVESGGGLVQAGGSLRLSCAASGRIFLQYAMGWYRQAPGKERELVAGISLRGGSTYYADSVKGRFTISRDNAKNTVYLQMNSLKPEDTAVYYCAADVIVTVETNTSGPSFTEYDYWGQGTQVTVSS | low polyreactivity
QVQLVESGGGLVQAGGSLRLSCAASGRIFLRNAMGWYRQAPGKERELVATITSRGGSTYYADSVKGRFTISRDNAKNTVYLQMNSLKQEDTAVYYCAADPRRYRGFGYVYGGFYYWGQGTQVTVSS | low polyreactivity
QVQLVESGGGLVQAGGSLRLSCAASGRIFLRYAMGWYRQAPGKERELVAVISSGGSTYYADSVKGRFTISSDNAKNTVYLQMNSLKPEDSAVYYCAASRHDSRYQYDYWGQGTQVTVSS | high polyreactivity
QVQLVESGGGLVQAGGSLRLSCAASGRIFLRYTMGWYRQAPGKDRELVAAISGGGSTNYADSVKGRFTISRDNAKNTVYLQMNSLKPEDTAVYYCAADYIWLSHPYRRVDFYYWGQGTQVTVSS | low polyreactivity
QVQLVESGGGLVQAGGSLRLSCAASGRIFLSNALGWYRQAPGKERELVAAINSGGNTDYADSVKGRFTISRDNAKNTVYLQMNSLKPEDTAVYYCAADAFSWDHDYWGQGTQVTVSS | low polyreactivity
QVQLVESGGGLVQAGGSLRLSCAASGRIFLTYAMGWYRPAPGKERELVAAIRSRSGTTYYADSVKGRFTISRDNAKNTVYLQMNRLKPEDTAVFYCAAGGKSRSYYWGQGTQVTVSS | high polyreactivity
QVQLVESGGGLVQAGGSLRLSCAASGRIFLVNAMGWYRQAPGKERELVAAINGSGGSTYYADSVKGRFTISRDNAKNTVYLQMNSLKPEDTAVYYCAAKYVYSVGNYRYDYWGQGTQVTVSS | low polyreactivity
QVQLVESGGGLVQAGGSLRLSCAASGRIFLVNAMGWYRQAPGKERELVAAISWSSGSTYYADSVKGSITISRDNAKNTVYLQMNSLKPEDTAVYYCAADGSSRGRYRYGYWGQGTQVTVSS | high polyreactivity
QVQLVESGGGLVQAGGSLRLSCAASGRIFLVYAMGWYRQAPGKERELVAAISWRGGRTYYADSVKGRFTISRDNAKNTFYLQMNSLKPEDTAVYYCAAASKYSQFEYDYWGQGTQVTVSS | high polyreactivity
QVQLVESGGGLVQAGGSLRLSCAASGRIFLVYAMGWYRQAPGKERELVAAISYSGGRTYYADSVKGRFTISRDNAKNTVYLQMNSLKPEDTAVYYCAAKRITYYGGGRFYYWGQGTQVTVSS | high polyreactivity
QVQLVESGGGLVQAGGSLRLSCAASGRIFLWYAMGWYRQAPGKERELVASITRSGVTTYYADSVKGRFTISRDNAKNTVYLQMNSLKPEDTAVYYCNKDFRGDAIKLDVNYWGQGTQVTVSS | low polyreactivity
QVQLVESGGGLVQAGGSLRLSCAASGRIFLYNAMGWYRQAPGKERELVAAITSSGSSTYYADSVKGRFTISRDNAKNTVYLQMNSLKPEDTAVYYCNRYTRKTRRVDYWGQGTQVTVSS | high polyreactivity
QVQLVESGGGLVQAGGSLRLSCAASGRIFLYYAMGWYRQAPGKERELVAAISRRGASTYYADSVKGRFTITRDNAKNNVYLQMHSLKPEDTAVYYCGTVPGKSGDYWGQGTQLTVSS | high polyreactivity
QVQLVESGGGLVQAGGSLRLSCAASGRIFMNYDMGWYRQPPGKERELVADISISGSTDYADSVKGRFTISRDNAKNTVYLQMNSLKPEDTAVYYCATSFYVSDYYVPYEMGYWGQGTQVTVSS | low polyreactivity
QVQLVESGGGLVQAGGSLRLSCAASGRIFNAYATGWYRKAPGKERELVAAISSIGGRTYYADSVKGRFTISRDNAKNTVYLQMNSLKPEETAVYYCAARRRSRQYRYDYWGQGTQVTVSS | high polyreactivity

Sequence | polyreactivity (PSR sort gate)
QVQLVESGGGLVQAGGSLRLSCAASGRIFNDYAMGWYRPAPGKESELVANYADSVKGRFTISRDNAKNTVYLQMNSLKPEDTAVFYCAADFPSFPDFRPEYDYWGQGTQVTVSS | low polyreactivity
QVQLVESGGGLVQAGGSLRLSCAASGRIFNEYGMGWYRQAPGKERELVAAITWGGGSTYYADSVKGRFTISRDNAKNTVYVQMNSLKPEDTAVYYCNAVSERPIPWYYYWGQGTQVTVSS | low polyreactivity
QVQLVESGGGLVQAGGSLRLSCAASGRIFNFYAMGWYRQAPGKERELVASITSGGRTSYADSVKGRFTISRDNAKNTVYLQMNSLKPEDTAVYYCAAVLFGYPRTIGTWYDRYYYWGQGTQVTVSS | high polyreactivity
QVQLVESGGGLVQAGGSLRLSCAASGRIFNGNAMGWYRQAPGKEREFVAAITWNGGRTYYADSVKGRFTISRDYAKNTVYLQMNSLKPEDTAVYYCNADPYHRRSSGDYWGQGTQVTVSS | high polyreactivity
QVQLVESGGGLVQAGGSLRLSCAASGRIFNGNAMGWYRQAPGKERELVAAISTSGGRTYYADSVKGRFTISRDNAKNTVYLQMNSLKPEDTAVYYCAARYFRRDYIDYDYWGQGTQVTVSS | low polyreactivity
QVQLVESGGGLVQAGGSLRLSCAASGRIFNGNAMGWYRQAPGKERELVAAISVSGGSTYYADSVKGRFTISRDNAKNTVYLQMNSLKPEDTAVYYCAARTSSYSFPYAYNYWGQGTQVTVSS | high polyreactivity
QVQLVESGGGLVQAGGSLRLSCAASGRIFNGYAMGWYRQAPGKERELVAAINSSGGSTYYADSVKGRFTISRDNAKNTVYLQMNSLKPEDTAVYYCARVSYHYRTYDYWGQGTQVTVSS | high polyreactivity
QVQLVESGGGLVQAGGSLRLSCAASGRIFNIYALGWYRQAPGKERELVAAISGSGSTYYADSVKGRFTISRDNAKNTVYLQMNSLKPEDTAVYYCAARSLVRYYHNANYYPYYYWGQGTQVTVSS | high polyreactivity
QVQLVESGGGLVQAGGSLRLSCAASGRIFNKYTMGWYRQAPGKERELVAAIRGRGGSTYYADSVKGRFTISRDNAKNTVYLQMNSLKPEDTAVYYCAADSGPFYSKTPTRYGYWGQGTQVTVSS | high polyreactivity
QVQLVESGGGLVQAGGSLRLSCAASGRIFNPNAMGWYRQAHGKESELVAAISGSGGSTYYADSVKGRFTISRDNAKNTVNLQMNSLKPEDTAVYYCNKLLSQRRYHSEMDYWGQGTQVTVSS | high polyreactivity
QVQLVESGGGLVQAGGSLRLSCAASGRIFNTYAMGWYRQAPGKERELVAAISWRGVSTYYADSVKGRFTISRDNAKNTVYLQMNSLKAEDTAVYYCAALPFWWGGYWGQGTQVTVSS | high polyreactivity
QVQLVESGGGLVQAGGSLRLSCAASGRIFNTYAMGWYRQAPGKERELVARITWSAGRTYYADSVKGRFTISRDNAKNTVYLQMNSLKPEDTAVYYCAAEGFYRSSPVRTYIGYDYWGQGTQVTVSS | high polyreactivity
QVQLVESGGGLVQAGGSLRLSCAASGRIFNYNAMGWYRQAPGKERELVAVITSGDSTNYADSVKGRFTISRDNAKNTVYLQMNSLKPEDTEVYYCAAEYYSIRYGPHSIEVYGMDYWGQGTQVTVSS | low polyreactivity
QVQLVESGGGLVQAGGSLRLSCAASGRIFNYYAMGWYRQAPGKARELVAAISGSGGRTYYADSVKGRFTISRDNAKNTVYLQMNSLKPEDTAVYYCAADGVDGYDYWGQGTQVTVSS | high polyreactivity
QVQLVESGGGLVQAGGSLRLSCAASGRIFNYYAMGWYRQAPGKERELVAGISGSGTSTYYADSVKGRFTISRDNAKNTVYLQMNSLKPEDTAVYYCAADVFRDDVWLDYWGQGTQVTVSS | low polyreactivity
QVQLVESGGGLVQAGGSLRLSCAASGRIFNYYAMGWYRQAPGKERELVATISRNGGRTYYADSVKGRFTISRDNAKNTVYLQMNSLKPEDTAVYYCATDGLYRYDYWGQGTQVTVSS | high polyreactivity
QVQLVESGGGLVQAGGSLRLSCAASGRIFNYYAMGWYRQATGKERELVARIDASGDSTYYADSVKGRFTISRDNAKNTVYLQMNSLKPEDTAVYYCNKDYLYSYLWGWKVYSYDYWGQGTQVTVSS | low polyreactivity
QVQLVESGGGLVQAGGSLRLSCAASGRIFPANAMGWYRQAPWKERELVAAISSTGGSTYYADSVKGRFTISRDNAKNSVYLQMKSLKPEDTAVYYCAKVHYRWPRVTWPNVWWSFEYWGQGTQVSVSS | low polyreactivity
QVQLVESGGGLVQAGGSLRLSCAASGRIFPAYAMGWYRQAPGKERELVAAISWTGTSTYYADSVKGRFTISRDNAKNTVYLQMNSLKPEDTAVYYCAARSYRLRSAYNYWGQGTQVTVSS | high polyreactivity
QVQLVESGGGLVQAGGSLRLSCAASGRIFPDNAMGWYRQAPGKERELVASITSGASTNYADSVKGRFTISRDNAKNTVFLQMNSLKPEDTAVYYCAAGYSYYDDYDYWGQGTQVTVSS | high polyreactivity
